# From patent US20230220042A1 (SHANGHAI JIAO TONG UNIVERSITY SCHOOL OF MEDICINE, published 2023)
# Residue numbers refer to the chain shown, from its start. Numbers in names are those of the source.
# T1: FcγRIIA^131H (human, UniProt P12318 34-217, biotin-labeled)
# T1 construct: extracellular domain; Bought protein; also called RIIAH
# T1 sequence (looked up): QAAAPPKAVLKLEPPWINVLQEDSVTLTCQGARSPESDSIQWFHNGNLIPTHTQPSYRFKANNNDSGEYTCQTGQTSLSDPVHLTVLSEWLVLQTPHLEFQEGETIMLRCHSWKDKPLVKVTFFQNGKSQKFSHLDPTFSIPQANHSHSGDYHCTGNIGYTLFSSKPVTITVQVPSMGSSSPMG
# T2: FcγRIIA^131R (human, UniProt P12318 34-217, biotin-labeled)
# T2 construct: extracellular domain; Bought protein; also called RIIAR
# T2 sequence (looked up): T1 sequence (looked up) with H134R
# T3: FcγRIIB (human, UniProt P31994 43-217, biotin-labeled)
# T3 construct: extracellular domain; Bought protein; also called CD32b
# T3 sequence (looked up): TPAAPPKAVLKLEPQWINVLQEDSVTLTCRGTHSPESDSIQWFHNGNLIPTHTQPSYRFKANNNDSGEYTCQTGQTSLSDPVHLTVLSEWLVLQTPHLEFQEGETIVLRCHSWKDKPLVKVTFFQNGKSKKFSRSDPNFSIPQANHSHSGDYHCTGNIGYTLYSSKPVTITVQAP
# T4: Biotin-FcγRIIB (human FcγRIIB, Sino Biological) (human, UniProt P31994 43-217, limits assumed, biotin-labeled)
# T4 construct: Used at 1 µg/ml with Streptavidin-APC for flow cytometry and sorting; also called CD32b
# T4 sequence (looked up): T3 sequence (looked up)
# T5: Biotin-FcγRIIB (human, UniProt P31994 43-217, limits assumed, biotin label)
# T5 construct: Soluble labelled protein used to stain and sort the display cells; also called human FcγRIIB; CD32b
# T5 sequence (looked up): T3 sequence (looked up)
# B1: human IgG2 anti-mouse CD40 surface displayed antibody, P271G (antibody, name in EU numbering)
# light chain (with the P2A rest): DTVLTQSPALAVSPGERVTISCRASDSVSTLMHWYQQKPGQQPKLLIYLASHLESGVPARFSGSGSGTDFTLTIDPVEADDTATYYCQQSWNDPWTFGGGTKLELKRTVAAPSVFIFPPSDEQLKSGTASVVCLLNNFYPREAKVQWKVDNALQSGNSQESVTEQDSKDSTYSLSSTLTLSKADYEKHKVYACEVTHQGLSSPVTKSFNRGECGSGATNFSLLKQAGDVEENPG
# heavy chain: EVQLVESDGGLVQPGRSLKLPCAASGFTFSDYYMAWVRQAPTKGLEWVASISYDGSSTYYRDSVKGRFTISRDNAKSTLYLQMDSLRSEDTATYYCGRHSSYFDYWGQGVMVTVSSASTKGPSVFPLAPCSRSTSESTAALGCLVKDYFPEPVTVSWNSGALTSGVHTFPAVLQSSGLYSLSSVVTVPSSNFGTQTYTCNVDHKPSNTKVDKTVERKCCVECPPCPAPPVAGPSVFLFPPKPKDTLMISRTPEVTCVVVDVSHEDGEVQFNWYVDGVEVHNAKTKPREEQFNSTFRVVSVLTVVHQDWLNGKEYKCKVSNKGLPAPIEKTISKTKGQPREPQVYTLPPSREEMTKNQVSLTCLVKGFYPSDIAVEWESNGQPENNYKTTPPMLDSDGSFFLYSKLTVDKSRWQQGNVFSCSVMHEALHNHYTQKSLSLSPGKLEPPPSTVSNMATVAVLVVLGAAIVTGAVVAFVMKMRRRNTGGKGGDYALAPGSQTSDLSLPDCKVMVHDPHSLA
# notes: m1 with this Fc mutation (Eu numbering); copies: 2 + 2
# B2: human IgG2 anti-mouse CD40 surface displayed antibody, P271A/S298R (antibody, name in EU numbering)
# light chain (with the P2A rest): B1 light chain (with the P2A rest)
# heavy chain: B1 heavy chain with G266A, S293R
# notes: m1 with these Fc mutations (Eu numbering); copies: 2 + 2
# B3: human IgG2 anti-mouse CD40 surface displayed antibody, V266L/S267E/H268S/E269V/P271C (antibody, name in EU numbering)
# light chain (with the P2A rest): B1 light chain (with the P2A rest)
# heavy chain: B1 heavy chain with V261L, S262E, H263S, E264V, G266C
# notes: As m1 with the Fc mutations
# B4: human IgG2 anti-mouse CD40 surface displayed antibody, V234Q/V266L/S267E/H268S/E269V (antibody)
# light chain (with the P2A rest): B1 light chain (with the P2A rest)
# heavy: B1 heavy chain with V230Q, V261L, S262E, H263S, E264V, G266P
# notes: As m1 with the Fc mutations; copies: 2 + 2
# B5: human IgG2 anti-mouse CD40 surface displayed antibody, V266L/S267E/H268S/E269G/P271T (antibody, name in EU numbering)
# light chain (with the P2A rest): B1 light chain (with the P2A rest)
# heavy chain: B1 heavy chain with V261L, S262E, H263S, E264G, G266T
# notes: As m1 with the Fc mutations
# B6: human IgG2 anti-mouse CD40 surface displayed antibody, V266L/S267D/H268D/E269D/P271Q (antibody, name in EU numbering)
# light chain (with the P2A rest): B1 light chain (with the P2A rest)
# heavy chain: B1 heavy chain with V261L, S262D, H263D, E264D, G266Q
# notes: As m1 with the Fc mutations
# B7: human IgG2 anti-mouse CD40 surface displayed antibody, L328M (antibody, name in EU numbering)
# light chain (with the P2A rest): B1 light chain (with the P2A rest)
# heavy chain: B1 heavy chain with G266P, L323M
# notes: as for B1
# B8: human IgG2 anti-mouse CD40 surface displayed antibody, V266L/S267E/H268S/E269V (antibody, name in EU numbering)
# light chain (with the P2A rest): B1 light chain (with the P2A rest)
# heavy chain: B1 heavy chain with V261L, S262E, H263S, E264V, G266P
# notes: As m1 with the Fc mutations
# B9: human IgG2 anti-mouse CD40 surface displayed antibody, V266L/S267E/H268S/E269A/P271C (antibody, name in EU numbering)
# light chain (with the P2A rest): B1 light chain (with the P2A rest)
# heavy chain: B1 heavy chain with V261L, S262E, H263S, E264A, G266C
# notes: As m1 with the Fc mutations
# B10: human IgG2 anti-mouse CD40 surface displayed antibody, V266L/S267M/H268E/P271Q (antibody, name in EU numbering)
# light chain (with the P2A rest): B1 light chain (with the P2A rest)
# heavy chain: B1 heavy chain with V261L, S262M, H263E, G266Q
# notes: As m1 with the Fc mutations
# B11: human IgG2 anti-mouse CD40 surface displayed antibody, V266L/S267E/E269K/P271G (antibody, name in EU numbering)
# light chain (with the P2A rest): B1 light chain (with the P2A rest)
# heavy chain: B1 heavy chain with V261L, S262E, E264K
# notes: As m1 with the Fc mutations
# Legend:
# [1] = target: T6, FcγRI (human, UniProt P12314 16-292, biotin-labeled); assay: ELISA, coated antibody, biotin-FcγR
# T6 construct: extracellular domain; Bought protein; also called CD64
# Experimental: (§1) One hundred μl (2 μg/mL) of antibody or mutant thereof were added to the enzyme-linked plate to be coated overnight, then the supernatant was discarded. The plate was blocked with PBS containing 1% BSA for 2 hours, and washed with PBST (PBS containing 0.05% Tween 20). Biotin-labeled FcγR extracellular domain protein (Beijing Sino Biological Co., Ltd) of appropriate concentration was added and incubated at room temperature for 1 hour, then the supernatant was discarded and the plate was washed with PBST. The Biotin-labeled protein was detected by incubating with Streptavidin-HRP (BD BioSciences) at room temperature for 1 hour. The supernatant was removed, and the color-developing solution was added for color development for 20-40 minutes to determine the absorbance of 650 nm (A650).
# (§2) Anti-human OX40 antibodies containing these new Fc mutation combinations are expressed and the binding property of the mutant antibody to FcγR are analyzed by Enzyme-linked immunosorbent assay (ELISA).
# [2] = target: T1, FcγRIIA^131H; assay: ELISA, coated antibody, biotin-FcγR
# Experimental: as §1, §2
# [3] = target: T2, FcγRIIA^131R; assay: ELISA, coated antibody, biotin-FcγR
# Experimental: as §1, §2
# [4] = target: T3, FcγRIIB; assay: ELISA, coated antibody, biotin-FcγR
# Experimental: as §1, §2
# [5] = target: T7, FcγRIIIA^158F (human, UniProt P08637 17-208, biotin-labeled); assay: ELISA, coated antibody, biotin-FcγR
# T7 construct: extracellular domain; Bought protein; also called RIIIAF
# Experimental: as §1, §2
# [6] = target: T8, FcγRIIIA^158V (human, UniProt P08637 17-208, biotin-labeled); assay: ELISA, coated antibody, biotin-FcγR
# T8 construct: extracellular domain; Bought protein; also called RIIIAV; CD16a 158V
# Experimental: as §1, §2
# [7] = target: T4, Biotin-FcγRIIB (human FcγRIIB, Sino …); assay: NGS after FACS sort of 3T3-displayed LibraryMix for biotin-FcγRIIB binding
# [8] = target: T5, Biotin-FcγRIIB; assay: NGS of 3T3 display library C2 flow-sorted for FcγRIIB binding
# T8 sequence (P08637 17-208 F176V): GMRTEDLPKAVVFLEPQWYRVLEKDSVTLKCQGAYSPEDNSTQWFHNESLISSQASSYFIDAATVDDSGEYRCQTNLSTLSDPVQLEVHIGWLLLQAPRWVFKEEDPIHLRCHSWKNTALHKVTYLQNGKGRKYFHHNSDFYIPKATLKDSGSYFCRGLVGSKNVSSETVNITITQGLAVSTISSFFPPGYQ
# T7 sequence (P08637 17-208): as the sequence (P08637 17-208 F176V) above, with V160F counted along it
# T6 sequence (P12314 16-292): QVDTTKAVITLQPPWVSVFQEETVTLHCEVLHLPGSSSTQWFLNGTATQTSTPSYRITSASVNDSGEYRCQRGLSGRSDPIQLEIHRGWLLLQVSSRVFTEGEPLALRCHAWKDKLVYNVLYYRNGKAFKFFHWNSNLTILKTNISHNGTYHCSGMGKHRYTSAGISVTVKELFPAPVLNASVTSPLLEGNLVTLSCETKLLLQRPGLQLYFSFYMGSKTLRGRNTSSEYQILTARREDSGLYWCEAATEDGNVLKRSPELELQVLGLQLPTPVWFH
Molecule,Absorbance value [1],Absorbance value [2],Absorbance value [3],Absorbance value [4],Absorbance value [5],Absorbance value [6],Enrichment factor (percentage after sorting/percentage before sorting) [7],Increased factor (enrichment factor/wild-type enrichment factor) [7],"enrichment factor, percentage after 2nd sorting/percentage after 1st sorting [8]","enrichment factor, percentage after 3rd sorting/percentage after 2nd sorting [8]",percentage after 1st sorting [8],percentage after 2nd sorting [8],percentage after 3rd sorting [8],"enrichment factor, percentage after 1st sorting/percentage before sorting [8]","enrichment factor, percentage after 3rd sorting/percentage before sorting [8]","increased factor, mutant enrichment factor/wild-type enrichment factor [8]",percentage before sorting [8]
IgG1 (antibody),2.66 A650,0.57 A650,0.26 A650,0.76 A650,0.19 A650,0.96 A650,–,–,–,–,–,–,–,–,–,–,–
B1,–,–,–,–,–,–,68.9,92.1,–,–,–,–,–,–,–,–,–
B2,–,–,–,–,–,–,2.45,3.27,–,–,–,–,–,–,–,–,–
B3,–,–,–,–,–,–,–,–,6.97 ratio,12.6 ratio,0%,0.01%,0.11%,–,–,–,–
B4,–,–,–,–,–,–,–,–,–,11.4 ratio,–,0.01%,0.09%,–,–,–,–
B5,–,–,–,–,–,–,–,–,9.34 ratio,5.2 ratio,0.03%,0.24%,1.23%,32.7 ratio,1590 ratio,1130 ratio,0%
B6,–,–,–,–,–,–,–,–,4.07 ratio,3.8 ratio,0.12%,0.49%,1.88%,122 ratio,1880 ratio,1340 ratio,0%
B7,–,–,–,–,–,–,24.9,33.3,–,–,–,–,–,–,–,–,–
B8,–,–,–,–,–,–,–,–,12.8 ratio,1.95 ratio,0.17%,2.13%,4.15%,99.9 ratio,2500 ratio,1780 ratio,0%
B9,–,–,–,–,–,–,–,–,3.84 ratio,7.11 ratio,0.25%,0.95%,6.76%,60.5 ratio,1650 ratio,1180 ratio,0%
B10,–,–,–,–,–,–,–,–,6.6 ratio,0.78 ratio,2.59%,17.1%,13.3%,229 ratio,1180 ratio,844 ratio,0.01%
B11,–,–,–,–,–,–,–,–,2.92 ratio,2.94 ratio,0.14%,0.42%,1.22%,214 ratio,1840 ratio,1310 ratio,0%
